Blank lines part the entries; values can stand above or below the molecule they belong to.
How the values were obtained:
[1] = molecular target: carbohydrate containing epitope on CD43 and/or CEA as expressed on COLO 205 colorectal cancer cells; test: flow cytometry on Colo 205 cells, control antibody
[2] = molecular target: carbohydrate containing epitope on CD43 and/or CEA as expressed on COLO 205 colorectal cancer cells; test: flow cytometry on Colo 205 cells, antibody at 1 ug/ml, R-PE secondary
[3] = molecular target: carbohydrate containing epitope on CD43 and/or CEA as expressed on COLO 205 colorectal cancer cells; test: flow cytometry on Colo 205 cells, secondary antibody alone
[4] = molecular target: carbohydrate containing epitope on CD43 and/or CEA as expressed on SU.86.86 pancreatic cancer cells; test: flow cytometry on SU.86.86 cells, secondary antibody alone at 1 ug/ml
[5] = molecular target: carbohydrate containing epitope on CD43 and/or CEA as expressed on SU.86.86 pancreatic cancer cells; test: cell-based or functional assay
[6] = molecular target: carbohydrate containing epitope on CD43 and/or CEA as expressed on COLO 205 colorectal cancer cells; test: flow cytometry on Colo 205 cells, antibody at 1 ug/ml, R-PE anti-mouse secondary
[7] = molecular target: carbohydrate containing epitope on CD43 and/or CEA as expressed on SU.86.86 pancreatic cancer cells; test: flow cytometry on SU.86.86 cells, antibody at 1 ug/ml, R-PE anti-mouse secondary

Molecule: mouse IgG (control antibody of FIG. 3)
background signal (MFI) [1]: 4 MFI

Molecule: hIgG1 (control antibody of Table 10)
Median Fluorescence Intensity (MFI) [2]: 6 MFI

Molecule: R-PE-conjugated goat F(ab')2 anti-mouse IgG(H+L), Southern Biotech, Cat. No.1032-09 (antibody)
background signal (MFI) [3]: 3 MFI | MFI [4]: 6 MFI

Molecule: mIgG3 (control antibody of Table 10)
Median Fluorescence Intensity (MFI) [2]: 7 MFI

B1: murine 5F1 antibody (m5F1) (antibody, V domains shown)
VH: EVQLQQSGPELVKPGASVRMSCTASGYTFTSYVMHWIKQKPGQGLDWIGYINPYNGGTQYNEKFKGKATLTSDKSSSTAYMELSSLTSEDSAVYYCARRTFPYYFDYWGQGTTLTVSS
VL: DVLMTQTPLSLPVSLGDQASISCRSSQSILHSNGNTYLEWYLQKPGQSPKLLIYKVSNRFSGVPDRFSGSGSGTDFTLKISRVEAEDLGVYYCFQGSHAPLTFGAGTKLELK
% of Annexin V and/or PI positive cells, SU.86.86 cells, 6 h, m5F1 at 2 ug/ml [5]: 60% | % of Annexin V and/or PI positive cells, SU.86.86 cells, 6 h, m5F1 at 4 ug/ml [5]: 72% | % of Annexin V and/or PI positive cells, SU.86.86 cells, 6 h, m5F1 at 8 ug/ml [5]: 78% | % of Annexin V and/or PI positive cells, SU.86.86 cells, 6 h, m5F1 at 16 ug/ml [5]: 89% | % of Annexin V and/or PI positive cells, SU.86.86 cells, 6 h, m5F1 at 32 ug/ml [5]: 91% | Median Fluorescence Intensity (MFI) [6]: 800 MFI | MFI [7]: 131 MFI

More lines, now with the values ahead:

background signal (MFI) [1]: 5 MFI
Molecule: human IgG (control antibody of FIG. 3)

background signal (MFI) [3]: 3 MFI
Molecule: R-PE-conjugated goat anti-human IgG, Southern Biotech, Cat. No.2040-09 (antibody)

From patent publication US20110280888A1
